The values below come from US20080293632, “Use of natriuretic peptides for the treatment of stature disorders related to shox gene” (Gudrun RAPPOLD-HOERBRAND, published 2008).

Series [1] has as its target T1, SHOX-GST (GST-SHOX-STM, SHOX aa 1-194) (Homo sapiens, UniProt O15266 O15266:1-194). Briefly: EMSA. Conditions: tags: N-terminal GST (pGEX, E. coli); chain copies: monomer at low, homodimer at high concentration (stated); label: 32P; 5' overhangs filled in. The protocol:
FIG. 2A: 10 fmol of ³²P-radiolabelled double-stranded oligonucleotide containing the putative proximal binding site of SHOX was incubated with 0, 0.05, 0.5 and 3 μl purified SHOX-GST (250 nM). Monomeric binding of SHOX-GST could be observed with volumes of 0.05 and 0.5 μl, an increase in SHOX-GST concentration led to the formation of homeodimers.
(§1) To create double stranded DNA for mobility shift assays two complementary oligonucleotides were annealed, generating 5′ overhangs on each side to permit radiolabelling using the Taq polymerase. The following oligonucleotides were used in the shift experiments (only the forward strand of the probes are given, putative binding site in bold, mutagenized nucleotides underlined): BNP-1220 Wt: […] [SEQ ID NO: 10]; BNP-1220a: […] [SEQ ID NO: 11]; BNP-1220b: […] [SEQ ID NO: 12]; BNP-1220c: […] [SEQ ID NO: 13]; BNP-600Wt: […] [SEQ ID NO: 14]; BNP-600a: […] CAT [SEQ ID NO: 15]; BNP-600b: […] [SEQ ID NO: 16].
(§2) Gel Shift reactions contained 15 mM Hepes pH 7.5, 150 mM NaCl, 1 mM EDTA, 0.5 mM DTT, 0.05% NP-40, 7.5% glycerol, 0.25 mg/ml bovine serum albumin, 1.5 μg poly(dI-dC) and the appropriate ³²P-labelled probe. After addition of protein extract the samples were incubated for 10 min at room temperature. Separation was performed on a 5% nondenaturing polyacrylamide gel with 0.25×TBE at 12 V/cm at room temperature for 50 min. […]
(A gel shift assay detects complexes by their altered migration in electrophoresis.)

In series [2] the target is T1, SHOX-GST (GST-SHOX-STM, SHOX aa 1-194). As to the kind of experiment: EMSA. Particulars: tags: N-terminal GST (pGEX, E. coli); chain copies: monomer at low, homodimer at high concentration (stated); label: 32P; 5' overhangs filled in. The method, then:
FIG. 3A: 10 fmol of ³²P-radiolabelled double stranded oligonucleotide containing the putative distal binding site of SHOX was incubated with 0, 0.05, 0.5 and 3 μl purified SHOX-GST (250 nM). Monomeric binding of SHOX-GST could be observed with volumes of 0.05 and 0.5 μl, an increase in SHOX-GST concentration led to the formation of homeodimers.
as §1, §2
The source holds these as a separate data set.

For series [3] the target is unchanged. Briefly: EMSA; five-nucleotide replacement, entire loss of binding. Conditions: tags: N-terminal GST (pGEX, E. coli); chain copies: monomer at low, homodimer at high concentration (stated); label: 32P; 5' overhangs filled in. The method, then: To test the sequence specificity of the SHOX DNA binding, SHOX-GST was incubated with oligonucleotides containing artificially introduced mutations in the putative SHOX binding site. Nucleotides differing from the wild-type sequence (Wt) are highlighted in green (BNP-1220a, BNP-1220b, BNP-1220c).
as §1
Gel Shift reactions contained 15 mM Hepes pH 7.5, 150 mM NaCl, 1 mM EDTA, 0.5 mM DTT, 0.05% NP-40, 7.5% glycerol, 0.25 mg/ml bovine serum albumin, 1.5 μg poly(dI-dC) and the appropriate ³²P-labelled probe. After addition of protein extract the samples were incubated for 10 min at room temperature. Separation was performed on a 5% nondenaturing polyacrylamide gel with 0.25×TBE at 12 V/cm at room temperature for 50 min. Gels were then dried and exposed overnight at −80° C. […]

Series [4] has the same target. The series is described as above. Conditions: tags: N-terminal GST (pGEX, E. coli); chain copies: monomer at low, homodimer at high concentration (stated); label: 32P; 5' overhangs filled in.
Excerpt: as §1
Gel Shift reactions contained 15 mM Hepes pH 7.5, 150 mM NaCl, 1 mM EDTA, 0.5 mM DTT, 0.05% NP-40, 7.5% glycerol, 0.25 mg/ml bovine serum albumin, 1.5 μg poly(dI-dC) and the appropriate ³²P-labelled probe. After addition of protein extract the samples were incubated for 10 min at room temperature. Separation was performed on a 5% nondenaturing polyacrylamide gel with 0.25×TBE at 12 V/cm at room temperature for 50 min. Gels were then dried and exposed overnight at −80° C. […] In competition experiments, varying amounts of unlabelled competitor DNA were added to the samples preceding addition of protein extracts. In supershift experiments, 3 μg of anti-human SHOX-3-specific antibody were applied to the samples and preincubated for 15 min on ice prior separation for 2 h at 12 V/cm and 8° C.
The source holds these as a separate data set.

The target of another series is SHOX full length (Homo sapiens, UniProt O15266 O15266:1-292). As to the kind of experiment: ChIP with SHOX antibody, U2OS cells, quantitative PCR. Particulars: tags: tetracycline-inducible in U2OS cells. The method, then:
Hereby U2OS cells, which express the SHOX gene for 48 hours, were treated with formaldehyde to allow fixation of the DNA binding proteins to the DNA. The cell chromatin was isolated and the fixed DNA precipitated together with SHOX through addition of a SHOX specific antibody. For controls, […] or water was used instead of the antibody. The precipitated DNA was analyzed by quantitative RT-PCR for an accumulation of SHOX binding sites in the putative regulatory region of the BNP gene.

T1 sequence (O15266 1-194, one chain of several): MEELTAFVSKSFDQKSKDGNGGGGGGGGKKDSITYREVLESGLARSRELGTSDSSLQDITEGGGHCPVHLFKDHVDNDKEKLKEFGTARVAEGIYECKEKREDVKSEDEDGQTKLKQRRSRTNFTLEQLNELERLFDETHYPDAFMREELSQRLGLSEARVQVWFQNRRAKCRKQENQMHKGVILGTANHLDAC
SHOX full length, sequence (O15266 whole entry, one chain of several): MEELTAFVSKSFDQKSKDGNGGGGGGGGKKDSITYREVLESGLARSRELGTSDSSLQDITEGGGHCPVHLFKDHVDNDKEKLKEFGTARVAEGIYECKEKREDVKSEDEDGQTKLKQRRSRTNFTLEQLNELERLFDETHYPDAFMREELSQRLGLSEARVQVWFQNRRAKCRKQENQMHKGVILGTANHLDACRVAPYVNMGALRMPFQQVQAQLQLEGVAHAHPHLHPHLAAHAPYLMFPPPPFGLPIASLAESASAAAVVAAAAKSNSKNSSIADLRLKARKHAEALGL

B1: BNP-600 Wt (dsDNA)
DNA 1: TTCCTGGTCATACCCAGGCTTTTAATGAATTGCCACTGGGGAATCAGCAT
DNA 2: ATGCTGATTCCCCAGTGGCAATTCATTAAAAGCCTGGGTATGACCAGGAA
B1: in series [1], the binding result is reported as “binds”.

B2: BNP-1220 Wt (dsDNA)
DNA 1: TAATCACCAGGCCACCTGCTAATGATAATTAGATCATGGGTGGTCAGATG
DNA 2: CATCTGACCACCCATGATCTAATTATCATTAGCAGGTGGCCTGGTGATTA
Regarding B2, the binding result in series [2] is “binds”.

B3: BNP-1220c (dsDNA)
DNA 1: GGGTCACCAGGCCACCTGCTCCCGATACCTAGATCATGGGTGGTCAGATG
DNA 2: CATCTGACCACCCATGATCTAGGTATCGGGAGCAGGTGGCCTGGTGACCC
Take B3: the binding result in series [3] is reported as “no binding”.

B4: BNP-600b (dsDNA)
DNA 1: GGGTTCCTGGTCATACCCAGGCTTTTGGGGAAGGGCCACTGGGGAATCAGCAT
DNA 2: ATGCTGATTCCCCAGTGGCCCTTCCCCAAAAGCCTGGGTATGACCAGGAACCC
In the case of B4, the binding result in series [4] was “no binding”.

B5: BNP-600 chromatin region (dsDNA)
DNA 1: TAATGAATTG
DNA 2: CAATTCATTA
The molecule B5 showed a binding signal with SHOX full length of 428 fold enrichment.

B6: BNP-1220 chromatin region (dsDNA)
DNA 1: TAATGATAATTA
DNA 2: TAATTATCATTA
B6: in the series with SHOX full length, the binding signal was determined as 301 fold enrichment.
